Laboratory results from the supplement of paper PMC9170038.

Tested on: MS2 coat protein
Test: apparent KD of MS2 coat protein; designed switch direction (-1 OFF switch, 1 ON switch): -1; higher = weaker reporter binding
Outline: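 The apparent KD reported per design is the median over clusters of curve fits to normalised cluster fluorescence. The RNA switches were transcribed on Illumina chips by stalled E. coli RNA polymerase. SNAP-549-labelled MS2 coat protein was titrated from 0.7 or 1.5 nM, doubling up to 3 µM, in Tris-HCl pH 7.5 buffer containing KCl, MgCl2, BSA, DTT, tRNA and Tween-20, with no input, 200 uM small-molecule ligand, or an oligonucleotide input.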

[1] = Eterna round: R95, input ligand: microRNA oligo, concentration not stated
[2] = input ligand: microRNA oligo, concentration not stated

Sequence	apparent KD of MS2 coat protein (input ligand: FMN 200 uM)	apparent KD of MS2 coat protein (input ligand: none)	apparent KD of MS2 coat protein [1]	apparent KD of MS2 coat protein [2]
CGAGCCUAUGUAAGGAUAUCACAAUAAAACCAGUGUGAGAAGGUACAUGAGGAUCACCCAUGUUCACGACUGGC [BmEX4 A.26] (Eterna round: R97, puzzle: Brourd's mod of Exclusion 4)	16.9 nM	16.8 nM		
UGUGAGCAUGUCAGGAUAUGCAUCACAGUUAGGAUGUAGAAGGGACAUGAGGAUCACCCAUGUAGCUUCAGGUA [BmEX4 A.20] (Eterna round: R97, puzzle: Brourd's mod of Exclusion 4)	17.7 nM	14.5 nM		
GUAUCGUGAGGAUAUCAUGAUUGACUUUUAUUUUGUCAGCGUGAGAAGGCACAUGAGGAUCACCCAUGUGAUUA [Ex4 - 3 - 8] (puzzle: Exclusion 4)			23.2 nM	
AUCGUGUGAGGAUAUCGAUGUUGGACGUCUAGGUCUGUGCGCGAGAAGGCACAUGAGGAUCACCCAUGUAAUGG [jl-ex4-4.26 ViennaUCT mod] (Eterna round: R97, puzzle: Exclusion 4)	137 nM	347 nM		
UUAUAUAGGUAGGAUAUCGAUUUUAAUUAAUAUCGAGAAGGGUCAACAUGAGGAUCACCCAUGUCAGCAUGUAU [LRO-Excl6-04-Rocketman] (Eterna round: R97, puzzle: Exclusion 6)	60 nM	55.1 nM		
GCGCACUAAGUGAGGAUAUCGAUUUUUUUUAGGAUCGAGAAGGCACAUGAGGAUCACCCAUGUUUGACGUGCGC [JR_BMOE4_Sub098] (puzzle: Brourd's mod of Exclusion 4)			15 nM	
UUUGUUUAUGUAGGAUAUGCCUGGCGUGCCUUUGCAGAAGGACAUGAGGAUCACCCAUGUAACAUGAGGCUCACCCAUGUCGCG [salish99_ExNG1_r04_112] (Eterna round: R96, puzzle: Exclusion NG 1)	285 nM	277 nM		152 nM
UUUUACAUAGGAUAUAGUUUGUUGUACAUGAGGAUCACCCAUGUUGUUGGUUGUGCUGUUCUAGAAGGAUGUUUCU [JR_E5_Sub014] (puzzle: Exclusion 5)			37.3 nM	
GAAAACGCAGAGGAUAUUUCAGAUCAAAGCUGCAAAGAAGGCUGCACAUGAGGAUCACCCAUGUGGUCUUCAAU [Mat - Exclusion 6 - JL Mod - D8] (Eterna round: R97, puzzle: Exclusion 6)	315 nM	25.8 nM		
AAUAAAAGCGAGGAUAUCGUAUCGGAAACGAUACGAGAAGGCGUAACAUGAGGAUCACCCAUGUGUCCUCAAUA [Mat - Exclusion 6 - Eli Mod - D8] (Eterna round: R97, puzzle: Exclusion 6)	1260 nM	130 nM		
GGGUGACAUGAGGAUCACCCAUGUCAGGAUAUGAUUCUGCUUGGGAAACCGAGUAGAAUCAGAAGGGACAUCCC (Eterna round: R97, puzzle: Exclusion 1)	324 nM	54.3 nM		
AAAUUAGCAAGUAGGUCCGACAUGAGGAUCACCCAUGUUAGCUAAUCUAACGCUGCAUGAGAGUGCGCUCGUCUUAA [Sensor-V1 #20] (Eterna round: R97, puzzle: Sensor, turn-off variant 1)	140 nM	149 nM		
UACAUGAGGAUCACCCAUGUUUUGUCGUGUAUGGUAUUUAUCUAGGAUAUCAAUUUGUGUAUUUAUGAGAAGGAGAAUAUUAAU [JMF's solution 68] (Eterna round: R96, puzzle: Exclusion NG 3)	44 nM	45.8 nM		29.5 nM
AAUACAAGCUAUUGAUCCCACAUGAGGAUCACCCAUGUUCCUGGCCGUGAGGCUAGGUAGACAAUAGCUCGUCUUAU [Sensor-V1 #43] (Eterna round: R97, puzzle: Sensor, turn-off variant 1)	27.9 nM	26.4 nM		
